We go through 5 molecules from article PMC5805785, “Site-specific phosphorylation of TRANSPARENT TESTA GLABRA1 mediates carbon partitioning in Arabidopsis seeds” (Nature Communications, 2018).

Series [1] has as its target T1, MBP-TT2 (Arabidopsis thaliana) (UniProt Q9FJA2).
T1 sequence: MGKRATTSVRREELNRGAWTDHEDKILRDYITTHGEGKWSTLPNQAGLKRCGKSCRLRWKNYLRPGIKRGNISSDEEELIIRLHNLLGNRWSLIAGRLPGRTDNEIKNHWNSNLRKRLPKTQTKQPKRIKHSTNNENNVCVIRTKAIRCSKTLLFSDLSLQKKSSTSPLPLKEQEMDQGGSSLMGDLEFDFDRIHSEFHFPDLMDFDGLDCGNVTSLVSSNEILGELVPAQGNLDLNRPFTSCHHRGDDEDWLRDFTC
Nature of the series: EMSA. To be noted: LightShift Chemiluminescent EMSA kit (Pierce); buffer, salt, pH and temperature not stated. For orientation: In EMSA bound probe runs differently from free probe, usually more slowly.

Series [2] concerns the target T2, MBP-TT2;MBP-TTG1 (Arabidopsis thaliana;Arabidopsis thaliana) (UniProt Q9FJA2+Q9XGN1).
T2 sequence 1: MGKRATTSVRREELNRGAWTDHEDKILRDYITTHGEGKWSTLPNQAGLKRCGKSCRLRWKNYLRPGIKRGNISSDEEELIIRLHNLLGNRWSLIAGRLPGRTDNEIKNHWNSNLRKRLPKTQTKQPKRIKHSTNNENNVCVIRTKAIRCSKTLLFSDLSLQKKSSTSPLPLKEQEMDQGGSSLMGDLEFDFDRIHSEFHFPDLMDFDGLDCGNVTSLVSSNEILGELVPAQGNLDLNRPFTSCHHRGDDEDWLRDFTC
T2 sequence 2: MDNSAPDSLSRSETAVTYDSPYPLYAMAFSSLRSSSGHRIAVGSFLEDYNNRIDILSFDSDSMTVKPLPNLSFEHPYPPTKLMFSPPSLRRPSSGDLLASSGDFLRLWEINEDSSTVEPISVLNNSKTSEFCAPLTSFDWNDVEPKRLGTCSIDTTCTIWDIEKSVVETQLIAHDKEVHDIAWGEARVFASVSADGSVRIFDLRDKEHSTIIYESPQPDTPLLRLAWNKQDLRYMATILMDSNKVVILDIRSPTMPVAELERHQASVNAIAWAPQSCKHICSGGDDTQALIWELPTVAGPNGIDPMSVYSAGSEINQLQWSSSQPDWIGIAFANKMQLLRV
As to the kind of experiment: EMSA. To be noted: LightShift Chemiluminescent EMSA kit (Pierce); buffer, salt, pH and temperature not stated.

In series [3] the target is T1, MBP-TT2 (Arabidopsis thaliana). Nature of the series: competition. As to conditions: LightShift Chemiluminescent EMSA kit (Pierce); buffer, salt, pH and temperature not stated.
The target of series [4] is T3, MBP-TTG1 (TRANSPARENT TESTA GLABRA1) (Arabidopsis thaliana, UniProt Q9XGN1 1-341).
T3 construct: TRANSPARENT TESTA GLABRA1 (TTG1), Arabidopsis thaliana, WD40 repeat protein; cDNA cloned into pMAL-c2x; also called recombinant MBP-TTG1; source: E. coli Rossetta (DE3), IPTG-induced, soluble fusion protein on amylose resin (methods); called 'in vitro-translated' in the results for the GST pull-down
T3 sequence (looked up): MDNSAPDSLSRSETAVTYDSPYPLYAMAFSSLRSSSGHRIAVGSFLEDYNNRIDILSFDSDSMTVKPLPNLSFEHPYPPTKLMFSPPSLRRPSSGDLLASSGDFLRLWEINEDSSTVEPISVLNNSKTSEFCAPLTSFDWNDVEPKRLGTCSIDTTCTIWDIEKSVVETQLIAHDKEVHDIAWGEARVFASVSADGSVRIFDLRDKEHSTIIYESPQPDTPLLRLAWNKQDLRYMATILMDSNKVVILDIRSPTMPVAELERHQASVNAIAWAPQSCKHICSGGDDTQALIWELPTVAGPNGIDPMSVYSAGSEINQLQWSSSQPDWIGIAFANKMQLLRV
As to the kind of experiment: pull-down; MBP, MBP-TTG1, MBP-TTG1^S215E and MBP-TTG1^S215A on amylose beads as baits; TT2-His as prey, detected with anti-His. As to conditions: both partners purified.

The target of the next series is T4, MBP-TTG1^S215A (Arabidopsis thaliana, UniProt Q9XGN1 1-341, S215A).
T4 construct: TRANSPARENT TESTA GLABRA1 (TTG1), Arabidopsis thaliana; mutated cDNA cloned into pMAL-c2x; source: E. coli Rossetta (DE3), soluble fusion protein immobilized on amylose beads
T4 sequence (looked up): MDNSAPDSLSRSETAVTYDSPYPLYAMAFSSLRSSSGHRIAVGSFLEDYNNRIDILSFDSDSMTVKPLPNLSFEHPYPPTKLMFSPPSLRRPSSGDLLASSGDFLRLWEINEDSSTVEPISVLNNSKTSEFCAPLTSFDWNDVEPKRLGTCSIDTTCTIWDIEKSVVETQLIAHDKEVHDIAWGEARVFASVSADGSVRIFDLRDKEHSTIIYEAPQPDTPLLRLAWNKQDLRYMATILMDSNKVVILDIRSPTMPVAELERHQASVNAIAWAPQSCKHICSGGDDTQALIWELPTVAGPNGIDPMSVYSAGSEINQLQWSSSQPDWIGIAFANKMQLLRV
Described as above. To be noted: both partners purified.

Series [5] deals with T3, MBP-TTG1 (TRANSPARENT TESTA GLABRA1). As to the kind of experiment: native gel or EMSA; EMSA supershift: recombinant MBP-TT2 and MBP-TTG1 incubated together with the biotinylated native GL2 probe (AC-rich motif). To be noted: both partners purified.

For the molecule “ATAATATATAAGGAAGAAGGAGTGCGAGGAGAAGAGGGAAGAGATCATAATTAAGCAAAGAAGCTAGCTAGGGACAGGATTTGTATGTCAATGGCCGTCGACATGTCTTCAAAAAAAAAAAAAAAAGACTTTTTCTCCTCTCCAGCCCTCTCTCTATCTCTCGTATACTACTCTCTCTTTTCTACATACATGTACTTGCTAGCTCTCACATAAACATATATT (double strand) [GL2 mutated probe]”, the binding result in series [1] was “no binding”.
Turning to “ATAATATATAAGGAAGAAGGAGTGCGAGGAGAAGAGGGAAGAGATCATAATTAAGCAAAGAAGCTAGCTAGGGACAGGATTTGTATGTCAATGGCCGTCGACATGTCTTCCAAACAACCCACCAAAGACTTTTTCTCCTCTCCAGCCCTCTCTCTATCTCTCGTATACTACTCTCTCTTTTCTACATACATGTACTTGCTAGCTCTCACATAAACATATATT (double strand) [GL2 native probe]”, the binding result in series [1] and in series [2] was “binds” throughout.
As to “ATAATATATAAGGAAGAAGGAGTGCGAGGAGAAGAGGGAAGAGATCATAATTAAGCAAAGAAGCTAGCTAGGGACAGGATTTGTATGTCAATGGCCGTCGACATGTCTTCCAAACAACCCACCAAAGACTTTTTCTCCTCTCCAGCCCTCTCTCTATCTCTCGTATACTACTCTCTCTTTTCTACATACATGTACTTGCTAGCTCTCACATAAACATATATT (double strand) [GL2 native competitor]”, the binding result in series [3] is “binds”.

B1: TT2-His (natural protein, Arabidopsis thaliana, UniProt Q9FJA2 1-258, looked up)
chain: MGKRATTSVRREELNRGAWTDHEDKILRDYITTHGEGKWSTLPNQAGLKRCGKSCRLRWKNYLRPGIKRGNISSDEEELIIRLHNLLGNRWSLIAGRLPGRTDNEIKNHWNSNLRKRLPKTQTKQPKRIKHSTNNENNVCVIRTKAIRCSKTLLFSDLSLQKKSSTSPLPLKEQEMDQGGSSLMGDLEFDFDRIHSEFHFPDLMDFDGLDCGNVTSLVSSNEILGELVPAQGNLDLNRPFTSCHHRGDDEDWLRDFTC
notes: TRANSPARENT TESTA2 (TT2; MYB123), Arabidopsis thaliana; cDNA cloned into pET28a; also called MYB123; source: E. coli Rossetta (DE3), IPTG-induced, soluble fusion protein
Take B1: the binding result (in series [4]; in the series with MBP-TTG1^S215A) was “binds” in each case.

B2: MBP-TT2 (natural protein, Arabidopsis thaliana, UniProt Q9FJA2 1-258, looked up)
chain: MGKRATTSVRREELNRGAWTDHEDKILRDYITTHGEGKWSTLPNQAGLKRCGKSCRLRWKNYLRPGIKRGNISSDEEELIIRLHNLLGNRWSLIAGRLPGRTDNEIKNHWNSNLRKRLPKTQTKQPKRIKHSTNNENNVCVIRTKAIRCSKTLLFSDLSLQKKSSTSPLPLKEQEMDQGGSSLMGDLEFDFDRIHSEFHFPDLMDFDGLDCGNVTSLVSSNEILGELVPAQGNLDLNRPFTSCHHRGDDEDWLRDFTC
notes: TRANSPARENT TESTA2 (TT2; MYB123), Arabidopsis thaliana; cDNA cloned into pMAL-c2x; also called MYB123; source: E. coli Rossetta (DE3), recombinant protein produced as for the pull-down assay
For B2, in series [5], the binding result is recorded as “binds”.
